PMC12273574, “Biochemical and structural characterization of a GNAT superfamily protein acetyltransferase from Helicobacter pylori” (The Journal of Biological Chemistry, 2025)

Key:
Assay in all cases: purified protein
[1] = substrate: CC(=O)NCCCC[C@H](N)C(=O)O; settings: 14C-ACO, 800 nM enzyme; Nα-amino group acetylated; unit μM as printed beside mM for the Nα-acetyl isomer
[2] = substrate: CC(=O)SCCNC(=O)CCNC(=O)[C@H](O)C(C)(C)COP(=O)(O)OP(=O)(O)OC[C@H]1O[C@@H](n2cnc3c(N)ncnc32)[C@H](O)[C@@H]1OP(=O)(O)O; settings: 50 mM lysine, 5-50 μM 14C-ACO, 800 nM enzyme, pH 8.0, 30 °C; labelled compound; pH 8.0; 30.0 °C
[3] = substrate: NCCCC[C@H](N)C(=O)O; settings: 50 μM 14C-ACO, 1-50 mM lysine, 800 nM enzyme, pH 8.0, 30 °C; pH 8.0; 30.0 °C

B1: HP0935 (Helicobacter pylori 26695) (protein)
chain: MTIKVFSPKYPTELEEFYAERIADNPLGFIQRLDLLPSISGFVQKLREHGGEFFEMREGNKLIGICGLNPINQTEAELCKFHINSAYQSQGLGQKLYESVEKYAFIKGYTKISLHVSKSQIKACNLYQKLGFVHIKEEDCVVELGEETLIFPTLFMEKILS
**Q.** Which results are given for B1?
**A.** Km [1]: 26.71 µM; Km [2]: 21.44 µM; Km [3]: 31310 µM
